Results taken from patent US12024544B2, “CCN3 and CCN3 peptides and analogs thereof for therapeutic use” (Rosalind Franklin University of Medicine & Science, priority 2010, dated 2024).
Entries after “also recorded” stand apart in the source; their conditions may differ.

Assays:
[1] = system: TIMP-1; experiment: TIMP-1 production by human skin fibroblasts; format: cell-based
From the text: To test this we used a cell culture model of skin healing/scarring, which employed the use of primary human skin fibroblasts derived from foreskins collected post circumcision. These have been used extensively in the past to grown in culture and treated with agents that are known to drive wound healing and or scarring. We were also interested in a rare form of skin fibrosis/scarring that can lead to systemic disease and death known as nephrogenic systemic fibrosis (NSF). NSF is a complication of NMR diagnostics in renal impaired patients, where gadolinium (GAD), a heavy metal, is used as a contrast agent, but in some cases appears to deposit in skin. Although the mechanism for development of skin fibrosis and subsequent systemic disease is not yet completely understood, we have developed a model that has allowed elucidation of the probable pathway to skin fibrosis (Bhagavathula, N., M. K. Dame, M. DaSilva, W. Jenkins, M. N. Aslam, P. Perone and J. Varani (2010)). “Fibroblast response to gadolinium: role for platelet-derived growth factor receptor.” Invest Radiol 45(12): 769-777). This disease is characterized as a hyperproliferative disease, and in our model it was shown that PDGF produced by resident skin fibroblasts are stimulated by GAD to increase their production of PDGF which acts to induce proliferation and the increased production of MMPs, regulators of ECM breakdown and thus turnover, including the major MMP, MMP-1. At the same time tissue inhibitors of MMPs (TIMPs) are also affected by exposure to GAD. […] It appears that local fibroblasts then respond to this increased TGF-beta by increasing their production of ECM, including predominantly collagen type 1.
We examined the role of CCN3 and CCNp in fibroproliferative/fibrotic responses in human dermal fibroblasts exposed to Omniscan, one of the gadolinium-based contrast agents associated with development of nephrogenic systemic fibrosis. These studies were carried out as we have previously described (Riser, B. L., N. Bhagavathula, P. Perone, K. Garchow, Y. Xu, G. J. Fisher, F. Najmabadi, D. Attili and J. Varani (2012)). “Gadolinium-induced fibrosis is counter-regulated by CCN3 in human dermal fibroblasts: a model for potential treatment of nephrogenic systemic fibrosis.” J Cell Commun Signal 6(2): 97-105.). In our studies, human dermal fibroblasts were exposed to Omniscan; or to PDGF and TGF-β1 as controls. Cellular proliferation was assessed along with MMP-1 (by ELISA and gelatin zymography), TIMP-1 (by ELISA) and COL1 (by ELISA) in the absence and presence of CCN3 and CCNp. CCN3 and CCNp38 was added to cells at 10 nM concentration and at the same time as PDGF. In parallel, CCN3 production was assessed in control and Omniscan-treated cells. In most case the results shown (each bar) are the mean of 3-5 separate experiments, using fibroblasts from different donors. CCN3 was produced in our laboratory from the human embryonic kidney cell line (HEK-293) transfected with the complete human CCN3 gene, and producing an approximate 55 kDa, full-length CCN3 product. A second source of CCN3 was obtained from Pepro Tech Corporation (Rocky Hill, NJ) and is produced in a prokaryote cell line.
Next we created and tested for efficacy, additional CCNp including those with the cysteines intact (native sequence) from CCNp37 and CCNp38 and those that were modified by either shortening the peptide by 1 or 2 amino acids or lengthening by one amino acid. […]

[2] = system: BTBR Ob/Ob mouse; experiment: BTBR Ob/Ob mouse model of diabetic renal disease; format: in vivo
Method: This was carried out using the BTBR Ob/Ob mouse strain that has a defective leptin receptor that results in increased appetite. As a result it rapidly gains weight over the control strain and becomes hyperglycemic at about one month of age, going on to develop renal disease resembling that in humans. This is regarded by some to be the rodent model best mirroring renal disease in humans as a complication of diabetes. Animals were treated with either rCCN3 (SEQ. ID. NO: 67) or CCNp38 (SEQ. ID. NO: 38) beginning at 9 weeks of age, when early renal disease has been documented. The disease was allowed to develop for 9 weeks, then treatment started. Mice were treated 3 times per week for 8 weeks. At 17 weeks, blood and urine were collected, and animals sacrificed with organ samples collected. The effect of treatment with either CCN3 (2 concentrations, 2 or 20× the circulating amounts) or mimic peptide (CCNp38, 2 concentrations, 20 or 200× the equivalent molar circulating concentration of CCN3) was tested. Assays to determine the effect of CCN3 or peptide on expression of target fibrosis genes and clinical pathology were determined using methods as previously described (Riser, Amer J Pathology 2009) and (McIntosh, L M, et al., Selective CCR2-targeted macrophage depletion ameliorates experimental mesangioproliferative glomerulonephritis, Clinical and Experimental Immunology, 2008, 155, 295-303).
This was carried out using the BT/BR Ob/Ob mouse strain that has a defective leptin receptor that results in increased appetite. As a result mice rapidly gain weight over the control strain and become hyperglycemic at about one month of age going on to develop renal disease resembling that in humans. This is regarded by some to be the best rodent model for mirroring renal disease in humans as a complication of diabetes. […] Animals were treated with either rCCN3 (SEQ. ID. NO: 67) or CCNp38 (SEQ. ID. NO: 38) beginning at 9 weeks of age, when early renal disease has been documented. Mice were treated for 8 weeks, then sacrificed and measured for renal disease and other complications, and the effect drug treatment. Test animals were documented to have developed diabetes by 9 weeks, and were randomized for treatment, thus providing equivalent blood glucose levels in each treated group.

B1: CCN3: full-length recombinant human CCN3 protein (SEQ. ID. No. 67), commercial (Pepro Tech) or made in HEK-293 (protein)
chain: MQVAATQRCPPQCPGRCPATPPTCAPGVRAVLDGCSCCLVCARQRGESCSDLEPCDESSGLYCDRSADPSNQTGICTAVEGDNCVFDGVIYRSGEKFQPSCKFQCTCRDGQIGCVPRCQLDVLLPEPNCPAPRKVEVPGECCEKWICGPDEEDSLGGLTLAAYRPEATLGVEVSDSSVNCIEQTTEWTACSKSCGMGFSTRVTNRNRQCEMLKQTRLCMVRPCEQEPEQPTDKKGKKCLRTKKSLKAIHLQFKNCTSLHTYKPRFCGVCSDGRCCTPHNTKTIQAEFQCSPGQIVKKPVMVIGTCTCHTNCPKNNEAFLQELELKTTRGKM
[1]; FIGS. 28-30
  block of PDGF stimulated TIMP-1 production: unable to block the increase in TIMP-1
[1]; PDGF, 10 nM, FIG. 19
  block of PDGF-induced increase in TIMP-1 production: neither CCNp38-3 (Seq. ID. No. 56) nor CCN3 (SEQ. ID. No. 67) is able to block or reduce the increase in TIMP-1 production
[1]; TGF-beta (fails to stimulate), FIG. 20
  effect on TIMP-1 production with TGF-beta: neither CCNp38-3 nor CCN3 have an effect; also recorded: neither CCNp38-3 or CCN3 have an effect
[2]; 17 weeks of diabetes, 8 weeks of treatment 3 times per week, FIG. 35
  effect on elevated plasma creatinine: reduces or blocks this pathology; also recorded: reduces or blocks this impairment
[2]; 17 weeks of diabetes, 8 weeks of treatment, FIG. 36
  effect on elevated albumin to creatinine ratio: greatly blocks this pathology; also recorded: greatly blocks this renal damage
[2]; 17 weeks of diabetes, 8 weeks of treatment, FIG. 37
  effect on mesangial expansion (PAS staining, image analysis): greatly block this pathology and treats the disease; also recorded: greatly blocks this pathology
[2]; kidney, 8 weeks of treatment, FIG. 38
  effect on increased renal mRNA levels for CCN2: greatly reduces or blocks the increase
[2]; kidney, 8 weeks of treatment, FIG. 39
  effect on increased renal mRNA levels for Col1A2: greatly reduces or blocks the increase
